# Data: article PMC6158253
# Test system: T1, BmoR (MarR-type regulator) (Bacteroides fragilis 638R), ORF:dbdd3c1d
# T1 sequence: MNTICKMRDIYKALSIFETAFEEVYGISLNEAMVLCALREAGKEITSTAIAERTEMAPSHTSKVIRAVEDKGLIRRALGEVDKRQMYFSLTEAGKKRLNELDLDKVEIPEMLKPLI
# Assay: EMSA
row,Sequence,binding
1,"ACGAGACCGATAAATGTGAGTCGGTTCTTTTTCAAAAATGCTTTAATCATCTTTATTTCAGGGTGTTTTAGAATCTGTCTGAATTTTGTTCGAGATTGTTTTGAGATTTATTTTCAAGGATATTCTCTTGTCTCTGTGAAGGCATAGCGGGCTATGTGACGCATGAAAACA (double strand) [BF638R_2699-2701 operon promoter, 171 bp]",no binding
2,"CCGGCCTCCATATCAAACAATAACCCGTTGCAACCTATGGATATTGGTGGTGTTCCATTCTATCGTACCTATGCCGTTAATTTAACCGTAAGATTCTAAAACATCTATATTGAAAGATATGAAAACATTTAAATATTTATTTGCAGGAGTTTGTTCCGTGT (double strand) [BF638R_4194 promoter (Methods text says BF638R_4199), 161 bp]",no binding
3,"CCTGCTACGCCTCCAATAATAATAATCTTCATTTGAATATATTTTCGTTTTAAAATAGTTTCCTATGGAAATAAACGTTTGCCGACTTAAAAAGGTTCATGGAAAAGCTTAAAAAATTAACAAGTATGGGTTATCTTACTTACGGAAGTGC (double strand) [BF638R_0572-bmoR operon promoter (bmoO), 151 bp]",binds
4,"CGTCTGACAGCAAGATAAAGTCCCTTAAAAGGGCCATGTTTCTTAATCGCTTCAATAGCGTATTGCGAACAAGTAGGAGTGAAACGACATGAAGGAGGAGT (double strand) [hlyD fragment (non-competitor DNA), 101 bp]",no binding
